Results: patent US20200299403A1

Columns and labels:
[1] = target: HER2 (HER2/c-erb-2 gene product) on SKBR3 cells (UniProt P04626); experiment: FACS on SKBR3 cells, one site specific binding fit
[2] = target: HER2 (HER2/c-erb-2 gene product) on SKBR3 cells (UniProt P04626); experiment: FACS on SKBR3 cells, Alexa 647 Protein L detection, one site specific binding fit (column head prints 'SKBR3 Cell Binding IC50, nM')

| Substance | Kd [1] | Kd [2] |
| --- | --- | --- |
| scFv-Fc (-1) pN3F DBCO-MMAF (Fc fusion) | 6.8 nM |  |
| trastuzumab scFv (VL_VH) with pN3F at position (-1), conjugated to DBCO-MMAF |  | 14 nM |
